Experimental data as given in PMC5467231, “The signalling receptor MCAM coordinates apical-basal polarity and planar cell polarity during morphogenesis” (Nature Communications, 2017).

Molecular target: T1, recombinant human MCAM/Fc chimera (Sino Biological 10115-H02H) (human, UniProt P43121 24-559)
T1 construct: melanoma cell adhesion molecule (MCAM), human, part fused to Fc; IgG1 Fc served as the control chimera; source: bought: Sino Biological Inc
T1 sequence (looked up): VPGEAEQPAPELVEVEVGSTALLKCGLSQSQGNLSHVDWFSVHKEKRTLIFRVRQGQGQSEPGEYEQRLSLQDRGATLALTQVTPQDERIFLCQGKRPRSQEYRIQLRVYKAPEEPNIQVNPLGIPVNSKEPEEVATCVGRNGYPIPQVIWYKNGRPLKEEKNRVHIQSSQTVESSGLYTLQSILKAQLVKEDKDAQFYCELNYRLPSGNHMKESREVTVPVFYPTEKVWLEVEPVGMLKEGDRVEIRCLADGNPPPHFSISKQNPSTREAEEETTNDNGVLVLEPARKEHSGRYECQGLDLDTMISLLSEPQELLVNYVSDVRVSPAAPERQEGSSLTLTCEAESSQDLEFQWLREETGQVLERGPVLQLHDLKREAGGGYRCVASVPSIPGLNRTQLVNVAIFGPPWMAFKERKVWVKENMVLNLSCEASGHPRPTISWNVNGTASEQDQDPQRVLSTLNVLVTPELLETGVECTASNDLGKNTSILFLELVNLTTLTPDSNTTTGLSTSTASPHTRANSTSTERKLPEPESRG
Assay: SPR; Biacore T100, CM5 chip, room temperature, 1x PBS with 0.05% Tween 20; MCAM/Fc, FGFR1/Fc, FGFR2/Fc or IgG1 Fc immobilised by amine coupling, soluble FGF2, FGF4 or FGF8 flowed over; 1:1 binding model
Settings: both partners purified

B1: recombinant FGF4 (Peprotech AF-100-31) (ligand, UniProt P08620 31-206, looked up)
chain: APTAPNGTLEAELERRWESLVALSLARLPVAAQPKEAAVQSGAGDYLLGIKRLRRLYCNVGIGFHLQALPDGRIGGAHADTRDSLLELSPVERGVVSIFGVASRFFVAMSSKGKLYGSPFFTDECTFKEILLPNNYNAYESYKYPGMFIALSKNGKTKKGNRVSPTMKVTHFLPRL
notes: fibroblast growth factor 4, recombinant, soluble; also called soluble FGF4; source: bought: Peprotech
Kd: 0.97 nM
